The series concerns Escherichia coli TOP10. Description: shrunken log2 fold change of peptide-encoding DNA abundance (4.5 h post-induction vs induction); higher = less antimicrobial activity (less host growth inhibition). The note with it: time post-induction: 4.5 h; library: site-saturation at positions 5, 18, 19, 20.
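Note: peptides expressed intracellularly from a pBAD plasmid library in pooled LB shake-flask culture, induced with 0.3% L-arabinose, DNA abundance read by NGS, three biological replicates, DESeq2 with apeglm shrinkage.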

As to RRIRARPPRLPRPRPRPFAAPRP, the “shrunken log2 fold change” value came to 0.644.

Regarding RRIRRRPPRLPRPRPRPWPEPRP, the “shrunken log2 fold change” value was -0.201.

RRIRKRPPRLPRPRPRPSHYPRP: the “shrunken log2 fold change” value is -0.248.

As to RRIRNRPPRLPRPRPRPMGRPRP, the “shrunken log2 fold change” value is -0.117.

Turning to RRIRQRPPRLPRPRPRPDLQPRP, the “shrunken log2 fold change” value is -0.0429.

As for RRIRRRPPRLPRPRPRPNLTPRP, the “shrunken log2 fold change” value is -0.245.

For RRIRRRPPRLPRPRPRPGATPRP, the “shrunken log2 fold change” value was 0.74.

For RRIRYRPPRLPRPRPRPNIPPRP, the “shrunken log2 fold change” value was -1.09.

Take RRIRMRPPRLPRPRPRPIVLPRP: the “shrunken log2 fold change” value is -0.0572.

In the case of RRIRERPPRLPRPRPRPCIHPRP, the “shrunken log2 fold change” value was -0.229.

As for RRIRCRPPRLPRPRPRPVWRPRP, the “shrunken log2 fold change” value was 0.358.

For RRIRARPPRLPRPRPRPEHTPRP, the “shrunken log2 fold change” value was 0.0124.

Consider RRIRMRPPRLPRPRPRPILQPRP, for which the “shrunken log2 fold change” value was found to be 0.133.

Take RRIRERPPRLPRPRPRPYQCPRP: the “shrunken log2 fold change” value was -0.00884.

Take RRIRIRPPRLPRPRPRPAVGPRP: the “shrunken log2 fold change” value came out at 0.455.

With RRIRYRPPRLPRPRPRPILGPRP, the “shrunken log2 fold change” value was -0.00192.

In the case of RRIRRRPPRLPRPRPRPASKPRP, the “shrunken log2 fold change” value was found to be 0.276.

As to RRIRPRPPRLPRPRPRPYQTPRP, the “shrunken log2 fold change” value was 0.0331.

Take RRIRSRPPRLPRPRPRPTNYPRP: the “shrunken log2 fold change” value is -0.44.

Turning to RRIRERPPRLPRPRPRPDDTPRP, the “shrunken log2 fold change” value was -0.0925.

Regarding RRIRERPPRLPRPRPRPTHFPRP, the “shrunken log2 fold change” value was -0.382.

Take RRIRARPPRLPRPRPRPIYPPRP: the “shrunken log2 fold change” value was -0.387.

Regarding RRIRFRPPRLPRPRPRPQARPRP, the “shrunken log2 fold change” value turned out to be 0.148.

On to RRIRHRPPRLPRPRPRPKFYPRP, for which the “shrunken log2 fold change” value was -0.148.

Regarding RRIRQRPPRLPRPRPRPYENPRP, the “shrunken log2 fold change” value is 0.00377.

For RRIRTRPPRLPRPRPRPSGFPRP, the “shrunken log2 fold change” value was 0.131.

RRIRWRPPRLPRPRPRPCMLPRP: the “shrunken log2 fold change” value was -0.215.

For the sequence RRIRMRPPRLPRPRPRPMIYPRP, the “shrunken log2 fold change” value was -0.178.

RRIRTRPPRLPRPRPRPQYRPRP: the “shrunken log2 fold change” value is -0.0697.

As for RRIRHRPPRLPRPRPRPANQPRP, the “shrunken log2 fold change” value is -0.0712.

As to RRIRYRPPRLPRPRPRPPPGPRP, the “shrunken log2 fold change” value came out at 0.909.

Regarding RRIRQRPPRLPRPRPRPVPHPRP, the “shrunken log2 fold change” value is -0.0417.

For the sequence RRIRQRPPRLPRPRPRPDNYPRP, the “shrunken log2 fold change” value was -0.194.

For RRIRWRPPRLPRPRPRPPKTPRP, the “shrunken log2 fold change” value amounted to 0.199.

On to RRIRRRPPRLPRPRPRPEDDPRP, for which the “shrunken log2 fold change” value was 1.11.

As to RRIRWRPPRLPRPRPRPQPAPRP, the “shrunken log2 fold change” value was 0.812.

Turning to RRIRVRPPRLPRPRPRPQYVPRP, the “shrunken log2 fold change” value is -0.262.

As for RRIRVRPPRLPRPRPRPPMPPRP, the “shrunken log2 fold change” value was 0.368.

On to RRIRMRPPRLPRPRPRPCLGPRP, for which the “shrunken log2 fold change” value amounted to 0.0639.

For RRIRCRPPRLPRPRPRPMTDPRP, the “shrunken log2 fold change” value was -0.0858.

Consider RRIRMRPPRLPRPRPRPENYPRP, for which the “shrunken log2 fold change” value was -0.0708.

In the case of RRIRMRPPRLPRPRPRPPMVPRP, the “shrunken log2 fold change” value was 0.188.

For RRIRSRPPRLPRPRPRPIECPRP, the “shrunken log2 fold change” value is -0.139.

With RRIRGRPPRLPRPRPRPCWCPRP, the “shrunken log2 fold change” value was determined as 0.171.

Turning to RRIRRRPPRLPRPRPRPSHAPRP, the “shrunken log2 fold change” value was found to be 0.232.

RRIRSRPPRLPRPRPRPRIVPRP: the “shrunken log2 fold change” value was -0.174.

As to RRIRKRPPRLPRPRPRPSTVPRP, the “shrunken log2 fold change” value was -0.159.

As to RRIRCRPPRLPRPRPRPCHMPRP, the “shrunken log2 fold change” value is -0.443.

For the sequence RRIRTRPPRLPRPRPRPPDNPRP, the “shrunken log2 fold change” value was -0.0234.

In the case of RRIRCRPPRLPRPRPRPVYNPRP, the “shrunken log2 fold change” value is -0.378.

Regarding RRIRSRPPRLPRPRPRPQPCPRP, the “shrunken log2 fold change” value stood at 2.29.

On to RRIRFRPPRLPRPRPRPRLRPRP, for which the “shrunken log2 fold change” value amounted to 0.378.

Regarding RRIRMRPPRLPRPRPRPYDWPRP, the “shrunken log2 fold change” value was -0.133.

For RRIRMRPPRLPRPRPRPVAHPRP, the “shrunken log2 fold change” value is 0.148.

Consider RRIRYRPPRLPRPRPRPHNFPRP, for which the “shrunken log2 fold change” value is -0.118.

Consider RRIRCRPPRLPRPRPRPALIPRP, for which the “shrunken log2 fold change” value is -0.0928.

For RRIRLRPPRLPRPRPRPAFCPRP, the “shrunken log2 fold change” value is 0.289.

As to RRIRWRPPRLPRPRPRPEMEPRP, the “shrunken log2 fold change” value was 0.451.

In the case of RRIRNRPPRLPRPRPRPPMMPRP, the “shrunken log2 fold change” value was 0.0507.

With RRIRGRPPRLPRPRPRPNHFPRP, the “shrunken log2 fold change” value was -0.0611.

RRIRCRPPRLPRPRPRPPVGPRP: the “shrunken log2 fold change” value came out at 0.414.

For the sequence RRIRTRPPRLPRPRPRPFIGPRP, the “shrunken log2 fold change” value is -0.353.

RRIRCRPPRLPRPRPRPVHVPRP: the “shrunken log2 fold change” value was -0.496.

For RRIRPRPPRLPRPRPRPWGGPRP, the “shrunken log2 fold change” value worked out at 0.702.

Consider RRIRCRPPRLPRPRPRPYLRPRP, for which the “shrunken log2 fold change” value was -0.00889.

As for RRIRPRPPRLPRPRPRPLSMPRP, the “shrunken log2 fold change” value was -0.33.

For RRIRPRPPRLPRPRPRPINWPRP, the “shrunken log2 fold change” value is -0.241.

Regarding RRIRGRPPRLPRPRPRPFRTPRP, the “shrunken log2 fold change” value is -0.0333.

On to RRIRFRPPRLPRPRPRPCRDPRP, for which the “shrunken log2 fold change” value was -0.274.

Turning to RRIRRRPPRLPRPRPRPMMVPRP, the “shrunken log2 fold change” value was -0.00292.

As to RRIRVRPPRLPRPRPRPTTHPRP, the “shrunken log2 fold change” value was -0.0858.

Regarding RRIRWRPPRLPRPRPRPDKPPRP, the “shrunken log2 fold change” value is 0.0507.

As for RRIRCRPPRLPRPRPRPYGFPRP, the “shrunken log2 fold change” value is -0.515.

As to RRIRSRPPRLPRPRPRPLMYPRP, the “shrunken log2 fold change” value was -0.197.

Consider RRIRNRPPRLPRPRPRPMVHPRP, for which the “shrunken log2 fold change” value was -0.00783.

RRIRARPPRLPRPRPRPCSYPRP: the “shrunken log2 fold change” value is -0.0595.

RRIRARPPRLPRPRPRPSTMPRP: the “shrunken log2 fold change” value is -0.237.

As for RRIRMRPPRLPRPRPRPRVTPRP, the “shrunken log2 fold change” value is 0.467.

As for RRIRARPPRLPRPRPRPDYGPRP, the “shrunken log2 fold change” value was -0.679.

Consider RRIRNRPPRLPRPRPRPVPNPRP, for which the “shrunken log2 fold change” value is -0.0122.

Regarding RRIRPRPPRLPRPRPRPNTAPRP, the “shrunken log2 fold change” value is -0.23.

For RRIRNRPPRLPRPRPRPFAAPRP, the “shrunken log2 fold change” value was 0.0928.

As to RRIRVRPPRLPRPRPRPHFHPRP, the “shrunken log2 fold change” value is 3.23.

Turning to RRIRKRPPRLPRPRPRPLRWPRP, the “shrunken log2 fold change” value stood at 1.37.

As to RRIRRRPPRLPRPRPRPMSTPRP, the “shrunken log2 fold change” value amounted to 0.231.

For RRIRNRPPRLPRPRPRPWVLPRP, the “shrunken log2 fold change” value came to 0.0737.

As to RRIRERPPRLPRPRPRPLPNPRP, the “shrunken log2 fold change” value was -0.658.

For the sequence RRIRKRPPRLPRPRPRPFITPRP, the “shrunken log2 fold change” value is -0.352.

As to RRIRKRPPRLPRPRPRPIPKPRP, the “shrunken log2 fold change” value is 0.499.

With RRIRLRPPRLPRPRPRPNRFPRP, the “shrunken log2 fold change” value was -0.404.

For the sequence RRIRSRPPRLPRPRPRPGDKPRP, the “shrunken log2 fold change” value amounted to 0.0832.

As to RRIRFRPPRLPRPRPRPCNKPRP, the “shrunken log2 fold change” value is -0.249.

As for RRIRPRPPRLPRPRPRPTSTPRP, the “shrunken log2 fold change” value was -0.0454.

RRIRFRPPRLPRPRPRPGCVPRP: the “shrunken log2 fold change” value worked out at 0.15.

Regarding RRIRWRPPRLPRPRPRPQHGPRP, the “shrunken log2 fold change” value is -0.164.

For the sequence RRIRVRPPRLPRPRPRPTFHPRP, the “shrunken log2 fold change” value came out at 0.0139.

Consider RRIRFRPPRLPRPRPRPMVIPRP, for which the “shrunken log2 fold change” value was 0.023.

Consider RRIRIRPPRLPRPRPRPGAYPRP, for which the “shrunken log2 fold change” value is -0.33.

In the case of RRIRGRPPRLPRPRPRPMCSPRP, the “shrunken log2 fold change” value amounted to 0.606.

Consider RRIRIRPPRLPRPRPRPHGHPRP, for which the “shrunken log2 fold change” value was -0.216.

Consider RRIRMRPPRLPRPRPRPKQAPRP, for which the “shrunken log2 fold change” value was 3.56.

Turning to RRIRFRPPRLPRPRPRPPNHPRP, the “shrunken log2 fold change” value was -0.0407.

As for RRIRVRPPRLPRPRPRPHQIPRP, the “shrunken log2 fold change” value came to 0.12.

For the sequence RRIRQRPPRLPRPRPRPRDMPRP, the “shrunken log2 fold change” value is -0.046.

With RRIRYRPPRLPRPRPRPLSTPRP, the “shrunken log2 fold change” value is -0.29.

Regarding RRIRSRPPRLPRPRPRPHNKPRP, the “shrunken log2 fold change” value is -0.71.

RRIRARPPRLPRPRPRPHNEPRP: the “shrunken log2 fold change” value was -0.258.

Regarding RRIRMRPPRLPRPRPRPAMVPRP, the “shrunken log2 fold change” value came to 0.501.

In the case of RRIRCRPPRLPRPRPRPGDWPRP, the “shrunken log2 fold change” value was determined as 0.377.

For RRIRNRPPRLPRPRPRPLFQPRP, the “shrunken log2 fold change” value is -0.421.

RRIRARPPRLPRPRPRPTLRPRP: the “shrunken log2 fold change” value is 0.148.

Take RRIRARPPRLPRPRPRPMAPPRP: the “shrunken log2 fold change” value stood at 0.0991.

On to RRIRIRPPRLPRPRPRPIFQPRP, for which the “shrunken log2 fold change” value is -0.378.

Consider RRIRPRPPRLPRPRPRPKGSPRP, for which the “shrunken log2 fold change” value turned out to be 0.0684.

Take RRIRHRPPRLPRPRPRPKFTPRP: the “shrunken log2 fold change” value is -0.219.

In the case of RRIRRRPPRLPRPRPRPCKAPRP, the “shrunken log2 fold change” value worked out at 0.122.

Take RRIRYRPPRLPRPRPRPMREPRP: the “shrunken log2 fold change” value came to 0.529.

Consider RRIRMRPPRLPRPRPRPTACPRP, for which the “shrunken log2 fold change” value was found to be 1.02.

In the case of RRIRMRPPRLPRPRPRPKQPPRP, the “shrunken log2 fold change” value came to 2.34.

Consider RRIRPRPPRLPRPRPRPGPQPRP, for which the “shrunken log2 fold change” value came to 0.521.

With RRIRCRPPRLPRPRPRPYPCPRP, the “shrunken log2 fold change” value is 0.00458.

Turning to RRIRYRPPRLPRPRPRPFICPRP, the “shrunken log2 fold change” value is -0.579.

As for RRIRPRPPRLPRPRPRPETEPRP, the “shrunken log2 fold change” value came to 0.344.

With RRIRRRPPRLPRPRPRPYQNPRP, the “shrunken log2 fold change” value was -0.74.

With RRIRARPPRLPRPRPRPNLPPRP, the “shrunken log2 fold change” value was found to be 0.158.
